One assay has as its target T1, AKT2 (human, UniProt P31751 1-481).
T1 construct: Endogenous protein in fixed human breast cancer cells (isPLA)
Put plainly: multiplex in situ PLA on fixed human breast cancer cells with or without EGF. As for the experimental part:
(§1) Detection was performed in three imaging rounds with stripping of the specific fluorescently-labelled detection probe between rounds. DAPI staining is shown in each image. Three isPLA reactions are detected per round using either a FITC, Cy3 or Cy5 filter. The isPLA assays target protein phosphorylation-protein or protein-protein interactions.
(§2) In situ PLA probes using the set-up illustrated in FIG. 3 were generated to target protein-protein interactions or protein-protein phosphorylation targets. Each isPLA probe set contains a unique oligonucleotide sequence that is complimentary to a fluorescent-conjugated detection oligonucleotide. The detection oligos are conjugated to either FITC, Cy3 or Cy5.
(§3) Following probe incubation, the padlocks were circularised by ligation, subjected to RCA to generate RCA products and detected with fluorescently labelled detection probes. Detection was performed in three rounds (see FIG. 11). […] Next, the detection oligos were stripped and new detection oligos were added targeting phosphorylated Grb2, phosphorylated Pi3K and phosphorylated STAT3. The same procedure was repeated again to detect phosphorylated Pi3K-PanAKT interaction, STAT5a-JAK2 interaction and JAK1-JAK3 interaction.

Another assay concerns the target T2, JAK2 (human, UniProt O60674 1-1132).
T2 construct: Endogenous protein in fixed human breast cancer cells (isPLA)
The assay is described as above. How it is done: as §1, §2, §3

The target in a further assay is T3, Beta-catenin (UniProt P35222 2-781).
T3 construct: Endogenous protein in fixed MCF-7 cells, detected through a primary antibody and oligonucleotide-conjugated secondary antibodies (in situ PLA); also called Beta-caternin
T3 sequence (looked up): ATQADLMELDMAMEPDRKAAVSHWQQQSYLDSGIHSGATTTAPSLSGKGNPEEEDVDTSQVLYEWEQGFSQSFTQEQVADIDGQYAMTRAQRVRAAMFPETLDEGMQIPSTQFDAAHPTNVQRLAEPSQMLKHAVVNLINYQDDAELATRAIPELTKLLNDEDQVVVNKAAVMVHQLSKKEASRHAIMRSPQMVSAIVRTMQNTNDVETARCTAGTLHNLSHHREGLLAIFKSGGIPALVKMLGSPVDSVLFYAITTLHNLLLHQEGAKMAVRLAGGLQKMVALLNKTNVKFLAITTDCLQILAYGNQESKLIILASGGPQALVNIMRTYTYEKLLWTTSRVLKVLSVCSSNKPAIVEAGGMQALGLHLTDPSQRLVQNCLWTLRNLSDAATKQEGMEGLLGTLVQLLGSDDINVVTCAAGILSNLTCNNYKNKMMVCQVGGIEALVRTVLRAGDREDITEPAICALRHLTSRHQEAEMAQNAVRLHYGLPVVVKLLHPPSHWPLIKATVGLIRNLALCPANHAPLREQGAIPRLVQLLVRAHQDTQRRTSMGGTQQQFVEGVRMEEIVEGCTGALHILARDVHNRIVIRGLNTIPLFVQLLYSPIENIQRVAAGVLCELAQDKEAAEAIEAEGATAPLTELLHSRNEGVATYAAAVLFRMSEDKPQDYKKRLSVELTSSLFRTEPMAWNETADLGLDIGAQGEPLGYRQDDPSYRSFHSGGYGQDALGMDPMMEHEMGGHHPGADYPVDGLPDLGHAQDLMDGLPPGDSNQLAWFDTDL
Put plainly: in situ proximity ligation assay on fixed MCF-7 cells, with blocking oligonucleotide 13+13, RCA and Cy5 detection.

T2 sequence (O60674 whole entry): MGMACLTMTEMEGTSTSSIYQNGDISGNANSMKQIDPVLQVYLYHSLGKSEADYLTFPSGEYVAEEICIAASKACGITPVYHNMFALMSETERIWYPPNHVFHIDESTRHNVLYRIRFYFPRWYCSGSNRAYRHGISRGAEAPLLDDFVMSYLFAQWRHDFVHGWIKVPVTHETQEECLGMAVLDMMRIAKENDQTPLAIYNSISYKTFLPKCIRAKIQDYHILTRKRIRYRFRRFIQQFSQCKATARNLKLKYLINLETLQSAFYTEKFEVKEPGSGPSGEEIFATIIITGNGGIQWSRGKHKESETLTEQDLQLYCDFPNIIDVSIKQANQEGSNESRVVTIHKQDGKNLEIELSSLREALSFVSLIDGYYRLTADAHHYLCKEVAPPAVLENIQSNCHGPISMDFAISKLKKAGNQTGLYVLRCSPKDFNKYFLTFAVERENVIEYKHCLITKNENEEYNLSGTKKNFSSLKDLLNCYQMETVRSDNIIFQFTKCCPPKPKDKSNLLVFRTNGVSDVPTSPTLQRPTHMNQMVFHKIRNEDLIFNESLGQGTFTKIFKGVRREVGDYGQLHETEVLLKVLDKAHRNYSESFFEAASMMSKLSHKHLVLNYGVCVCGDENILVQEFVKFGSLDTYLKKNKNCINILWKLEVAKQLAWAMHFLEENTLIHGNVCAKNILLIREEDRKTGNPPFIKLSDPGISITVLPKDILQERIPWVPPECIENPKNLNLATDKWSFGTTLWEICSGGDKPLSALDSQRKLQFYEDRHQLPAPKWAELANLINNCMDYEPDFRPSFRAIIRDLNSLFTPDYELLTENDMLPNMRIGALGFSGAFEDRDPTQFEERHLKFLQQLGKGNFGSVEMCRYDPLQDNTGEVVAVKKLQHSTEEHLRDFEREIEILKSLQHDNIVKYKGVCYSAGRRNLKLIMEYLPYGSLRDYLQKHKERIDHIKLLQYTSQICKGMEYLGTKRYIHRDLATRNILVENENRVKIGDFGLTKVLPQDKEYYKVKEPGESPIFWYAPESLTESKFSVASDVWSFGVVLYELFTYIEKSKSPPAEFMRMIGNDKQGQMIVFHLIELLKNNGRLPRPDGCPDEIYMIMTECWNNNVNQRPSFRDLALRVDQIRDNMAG
T1 sequence (P31751 whole entry): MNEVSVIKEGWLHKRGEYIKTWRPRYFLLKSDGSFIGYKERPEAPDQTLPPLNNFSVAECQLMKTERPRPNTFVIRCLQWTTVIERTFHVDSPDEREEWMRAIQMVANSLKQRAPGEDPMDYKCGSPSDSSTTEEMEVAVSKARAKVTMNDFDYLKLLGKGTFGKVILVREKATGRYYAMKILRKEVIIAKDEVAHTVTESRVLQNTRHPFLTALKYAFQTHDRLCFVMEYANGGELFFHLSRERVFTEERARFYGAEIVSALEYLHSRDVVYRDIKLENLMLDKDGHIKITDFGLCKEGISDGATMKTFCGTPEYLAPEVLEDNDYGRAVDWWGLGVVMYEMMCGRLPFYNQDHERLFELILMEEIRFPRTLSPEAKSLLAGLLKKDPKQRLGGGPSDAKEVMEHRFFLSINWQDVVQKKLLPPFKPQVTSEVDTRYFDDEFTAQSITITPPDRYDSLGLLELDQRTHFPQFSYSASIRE
Protocol for Beta-catenin: The validation of the design was performed on MCF-7 cells, using a high concentration of proximity probes (conjugated secondary antibodies), probe A: anti-Mouse, with padlocks hybridized; probe B: anti-Rabbit with ligation templates (24 nt hybridization site, 12 nt on each end), 50 nM each). After incubation the fixed MCF-7 cells with (one or both primary antibody for Beta-caternin and E-cadherin) or without the primary antibodies (-primary) and washing, the secondary antibodies with (1 uM blocking oligos, 13 nt hybridization site on both ends) or without blocking oligos were applied to the MCF-7 cells.
When the probe A and B bind in close proximity, the blocking oligonucleotide can be competed away. The signal here results from the rolling cycle amplification products, representing the close proximity of Beta-catenin and E-cadherin detected by Cy5 labelled detection oligonucleotides, the nuclei were stained with DAPI.

B1: AKT3 (enzyme, human, UniProt Q9Y243 2-479, looked up)
chain: SDVTIVKEGWVQKRGEYIKNWRPRYFLLKTDGSFIGYKEKPQDVDLPYPLNNFSVAKCQLMKTERPKPNTFIIRCLQWTTVIERTFHVDTPEEREEWTEAIQAVADRLQRQEEERMNCSPTSQIDNIGEEEMDASTTHHKRKTMNDFDYLKLLGKGTFGKVILVREKASGKYYAMKILKKEVIIAKDEVAHTLTESRVLKNTRHPFLTSLKYSFQTKDRLCFVMEYVNGGELFFHLSRERVFSEDRTRFYGAEIVSALDYLHSGKIVYRDLKLENLMLDKDGHIKITDFGLCKEGITDAATMKTFCGTPEYLAPEVLEDNDYGRAVDWWGLGVVMYEMMCGRLPFYNQDHEKLFELILMEDIKFPRTLSSDAKSLLSGLLIKDPNKRLGGGPDDAKEIMRHSFFSGVNWQDVYDKKLVPPFKPQVTSETDTRYFDEEFTAQTITITPPEKYDEDGMDCMDNERRPHFPQFSYSASGRE
notes: Endogenous protein in fixed human breast cancer cells (isPLA)
For the molecule B1, the binding result with AKT2 was “binds”.

B2: STAT5a (other, human, UniProt P42229 1-794, looked up)
chain: MAGWIQAQQLQGDALRQMQVLYGQHFPIEVRHYLAQWIESQPWDAIDLDNPQDRAQATQLLEGLVQELQKKAEHQVGEDGFLLKIKLGHYATQLQKTYDRCPLELVRCIRHILYNEQRLVREANNCSSPAGILVDAMSQKHLQINQTFEELRLVTQDTENELKKLQQTQEYFIIQYQESLRIQAQFAQLAQLSPQERLSRETALQQKQVSLEAWLQREAQTLQQYRVELAEKHQKTLQLLRKQQTIILDDELIQWKRRQQLAGNGGPPEGSLDVLQSWCEKLAEIIWQNRQQIRRAEHLCQQLPIPGPVEEMLAEVNATITDIISALVTSTFIIEKQPPQVLKTQTKFAATVRLLVGGKLNVHMNPPQVKATIISEQQAKSLLKNENTRNECSGEILNNCCVMEYHQATGTLSAHFRNMSLKRIKRADRRGAESVTEEKFTVLFESQFSVGSNELVFQVKTLSLPVVVIVHGSQDHNATATVLWDNAFAEPGRVPFAVPDKVLWPQLCEALNMKFKAEVQSNRGLTKENLVFLAQKLFNNSSSHLEDYSGLSVSWSQFNRENLPGWNYTFWQWFDGVMEVLKKHHKPHWNDGAILGFVNKQQAHDLLINKPDGTFLLRFSDSEIGGITIAWKFDSPERNLWNLKPFTTRDFSIRSLADRLGDLSYLIYVFPDRPKDEVFSKYYTPVLAKAVDGYVKPQIKQVVPEFVNASADAGGSSATYMDQAPSPAVCPQAPYNMYPQNPDHVLDQDGEFDLDETMDVARHVEELLRRPMDSLDSRLSPPAGLFTSARGSLS
notes: as for B1
For the molecule B2, the binding result in the assay with JAK2 is recorded as “binds”.

B3: E-cadherin (other, UniProt P12830 155-882, looked up)
chain: DWVIPPISCPENEKGPFPKNLVQIKSNKDKEGKVFYSITGQGADTPPVGVFIIERETGWLKVTEPLDRERIATYTLFSHAVSSNGNAVEDPMEILITVTDQNDNKPEFTQEVFKGSVMEGALPGTSVMEVTATDADDDVNTYNAAIAYTILSQDPELPDKNMFTINRNTGVISVVTTGLDRESFPTYTLVVQAADLQGEGLSTTATAVITVTDTNDNPPIFNPTTYKGQVPENEANVVITTLKVTDADAPNTPAWEAVYTILNDDGGQFVVTTNPVNNDGILKTAKGLDFEAKQQYILHVAVTNVVPFEVSLTTSTATVTVDVLDVNEAPIFVPPEKRVEVSEDFGVGQEITSYTAQEPDTFMEQKITYRIWRDTANWLEINPDTGAISTRAELDREDFEHVKNSTYTALIIATDNGSPVATGTGTLLLILSDVNDNAPIPEPRTIFFCERNPKPQVINIIDADLPPNTSPFTAELTHGASANWTIQYNDPTQESIILKPKMALEVGDYKINLKLMDNQNKDQVTTLEVSVCDCEGAAGVCRKAQPVEAGLQIPAILGILGGILALLILILLLLLFLRRRAVVKEPLLPPEDDTRDNVYYYDEEGGGEEDQDFDLSQLHRGLDARPEVTRNDVAPTLMSVPRYLPRPANPDEIGNFIDENLKAADTDPTAPPYDSLLVFDYEGSGSEAASLSSLNSSESDKDQDYDYLNEWGNRFKKLADMYGGGEDD
notes: Endogenous protein in fixed MCF-7 cells, detected through a primary antibody and oligonucleotide-conjugated secondary antibodies (in situ PLA)
Turning to B3, the binding result with Beta-catenin was “binds”.

The values above are taken from patent US20260103748A1 (NAVINCI DIAGNOSTICS, published 2026).
